Results on 2 variants are retold here after article PMC6940986, “Structural Insights into the Intracellular Region of the Human Magnesium Transport Mediator CNNM4” (International Journal of Molecular Sciences, 2019).

To fix the notation:
B1: CNNM4_(BAT-cNMP-Ctail) (complete intracellular region of human CNNM4, residues 356-775) [human] / itself (parent)
chain: KEELNMIQGALELRTKTVEDIMTQLQDCFMIRSDAILDFNTMSEIMESGYTRIPVFEDEQSNIVDILYVKDLAFVDPDDCTPLKTITRFYNHPVHFVFHDTKLDAMLEEFKKGKSHLAIVQKVNNEGEGDPFYEVLGLVTLEDVIEEIIKSEILDESDMYTDNRSRKRVSEKNKRDFSAFKDADNELKVKISPQLLLAAHRFLATEVSQFSPSLISEKILLRLLKYPDVIQELKFDEHNKYYARHYLYTRNKPADYFILILQGKVEVEAGKENMKFETGAFSYYGTMALTSVPSDRSPAHPTPLSRSASLSYPDRTDVSTAATLAGSSNQFGSSVLGQYISDFSVRALVDLQYIKITRQQYQNGLLASRMENSPQFPIDGCTTHMENLAEKSELPVVDETTTLLNERNSLLHKASHENAI
B2: CNNM4_(cNMP) (human CNNM4 cyclic nucleotide monophosphate binding-like domain, residues 545-730) [modified: SeMet labeled in the crystals; SeMet labeled in the crystals] [human] / itself (parent)
chain: KISPQLLLAAHRFLATEVSQFSPSLISEKILLRLLKYPDVIQELKFDEHNKYYARHYLYTRNKPADYFILILQGKVEVEAGKENMKFETGAFSYYGTMALTSVPSDRSPAHPTPLSRSASLSYPDRTDVSTAATLAGSSNQFGSSVLGQYISDFSVRALVDLQYIKITRQQYQNGLLASRMENSPQ

The variants in assay [1] derive from B1. In words: SEC-MALS. As to conditions: with itself, monomer MW = 47,861.17 Da. (In general: In gel filtration, larger molecules generally elute earlier.)
Variants of B2 are the subject of assay [2]. The assay is described as follows: SEC-MALS. As to conditions: with itself, monomer Mw = 20936.78 Da.

Regarding chain 1 F276A, the screen value with itself [1] (1 mg/mL (dotted lines)) is 49200 Da; with itself [1] (10 mg/mL (solid lines)) it was 60900 Da.

On to chain 1 F87A, for which the screen value with itself [2] (1 mg/mL (dotted lines)) worked out at 21700 Da; in the assay with itself [2] (10 mg/mL (solid lines)), 26400 Da.
